# B1: Estrogen receptor (Homo sapiens), P03372 (parent)
# chain: MTMTLHTKASGMALLHQIQGNELEPLNRPQLKIPLERPLGEVYLDSSKPAVYNYPEGAAYEFNAAAAANAQVYGQTGLPYGPGSEAAAFGSNGLGGFPPLNSVSPSPLMLLHPPPQLSPFLQPHGQQVPYYLENEPSGYTVREAGPPAFYRPNSDNRRQGGRERLASTNDKGSMAMESAKETRYCAVCNDYASGYHYGVWSCEGCKAFFKRSIQGHNDYMCPATNQCTIDKNRRKSCQACRLRKCYEVGMMKGGIRKDRRGGRMLKHKRQRDDGEGRGEVGSAGDMRAANLWPSPLMIKRSKKNSLALSLTADQMVSALLDAEPPILYSEYDPTRPFSEASMMGLLTNLADRELVHMINWAKRVPGFVDLTLHDQVHLLECAWLEILMIGLVWRSMEHPGKLLFAPNLLLDRNQGKCVEGMVEIFDMLLATSSRFRMMNLQGEEFVCLKSIILLNSGVYTFLSSTLKSLEEKDHIHRVLDKITDTLIHLMAKAGLTLQQQHQRLAQLLLILSHIRHMSNKGMEHLYSMKCKNVVPLYDLLLEMLDAHRLHAPTSRGGASVEETDQSHLATAGSTSSHSLQKYYITGEAEGFPATV
# B2: Progesterone receptor (Homo sapiens), P06401-1 (parent)
# chain: MTELKAKGPRAPHVAGGPPSPEVGSPLLCRPAAGPFPGSQTSDTLPEVSAIPISLDGLLFPRPCQGQDPSDEKTQDQQSLSDVEGAYSRAEATRGAGGSSSSPPEKDSGLLDSVLDTLLAPSGPGQSQPSPPACEVTSSWCLFGPELPEDPPAAPATQRVLSPLMSRSGCKVGDSSGTAAAHKVLPRGLSPARQLLLPASESPHWSGAPVKPSPQAAAVEVEEEDGSESEESAGPLLKGKPRALGGAAAGGGAAAVPPGAAAGGVALVPKEDSRFSAPRVALVEQDAPMAPGRSPLATTVMDFIHVPILPLNHALLAARTRQLLEDESYDGGAGAASAFAPPRSSPCASSTPVAVGDFPDCAYPPDAEPKDDAYPLYSDFQPPALKIKEEEEGAEASARSPRSYLVAGANPAAFPDFPLGPPPPLPPRATPSRPGEAAVTAAPASASVSSASSSGSTLECILYKAEGAPPQQGPFAPPPCKAPGASGCLLPRDGLPSTSASAAAAGAAPALYPALGLNGLPQLGYQAAVLKEGLPQVYPPYLNYLRPDSEASQSPQYSFESLPQKICLICGDEASGCHYGVLTCGSCKVFFKRAMEGQHNYLCAGRNDCIVDKIRRKNCPACRLRKCCQAGMVLGGRKFKKFNKVRVVRALDAVALPQPVGVPNESQALSQRFTFSPGQDIQLIPPLINLLMSIEPDVIYAGHDNTKPDTSSSLLTSLNQLGERQLLSVVKWSKSLPGFRNLHIDDQITLIQYSWMSLMVFGLGWRSYKHVSGQMLYFAPDLILNEQRMKESSFYSLCLTMWQIPQEFVKLQVSQEEFLCMKVLLLLNTIPLEGLRSQTQFEEMRSSYIRELIKAIGLRQKGVVSSSQRFYQLTKLLDNLHDLVKQLHLYCLNTFIQSRALSVEFPEMMSEVIAAQLPKILAGMVKPLLFHKK
# Variants of: B1
# Details: with PGR
row,Variant,effect of a mutation on the interaction
1,MTMTLHTKASGMALLHQIQGNELEPLNRPQLKIPLERPLGEVYLDSSKPAVYNYPEGAAYEFNAAAAANAQVYGQTGLPYGPGSEAAAFGSNGLGGFPPLNSVSPSPLMLLHPPPQLSPFLQPHGQQVPYYLENEPSGYTVREAGPPAFYRPNSDNRRQGGRERLASTNDKGSMAMESAKETRYCAVCNDYASGYHYGVWSCEGCKAFFKRSIQGHNDYMCPATNQCTIDKNRRKSCQACRLRKCYEVGMMKGGIRKDRRGGRMLKHKRQRDDGEGRGEVGSAGDMRAANLWPSPLMIKRSKKNSLALSLTADQMVSALLDAEPPILYSEYDPTRPFSEASMMGLLTNLADRELVHMINWAKRVPGFVDLTLHDQVHLLECAWLEILMIGLVWRSMEHPGKLLFAPNLLLDRNQGKCVEGMVEIFDMLLATSSRFRMMNLQGEEFVCLKSIILLNSGVYTFLSSTLKSLEEKDHIHRVLDKITDTLIHLMAKAGLTLQQQHQRLAQLLLILSHIRHMSNKGMEHLYSMKCKNVVPLFDLLLEMLDAHRLHAPTSRGGASVEETDQSHLATAGSTSSHSLQKYYITGEAEGFPATV [Y537F],with no effect

# Variants of: B2
# Details: with esr1_human ESR1, P03372
row,Variant,effect of a mutation on the interaction
1,P422A;P423A;P426A,with no effect

# Variants of: B2
# Details: with src_human SRC
row,Variant,effect of a mutation on the interaction
1,P422A;P423A;P426A,disrupting interaction strength

# — IntAct's records for PubMed 12612073
